Results published in publication PMC7907208, “Aptamer-targeting of Aleutian mink disease virus (AMDV) can be an effective strategy to inhibit virus replication”.

B1: ADVa014 (ssDNA)
DNA: AGCAGCACAGAGGTCAGATGTGTTGTCCCGGGGCCCTATGCGTGCTACCGTGAATAGCGTCCTATGCGTGCTACCGTGAA
B2: ADVa001 (ssDNA)
DNA: AGCAGCACAGAGGTCAGATGGTGTGTGTGTGTGTGTGTGTGCCTATGCGTGCTACCGTGACCTATGCGTGCTACCGTGAA
B3: ADVa011 (ssDNA)
DNA: AGCAGCACAGAGGTCAGATGGGGTTGTCGGTGTTTGCGGGCCTATGCGTGCTACCGTGAACCTATGCGTGCTACCGTGAA
B4: ADVa012 (ssDNA)
DNA: AGCAGCACAGAGGTCAGATGAGCTAGTGCCTATGCGTGCTACCGTGAATAGCGTCAGCAGCCTATGCGTGCTACCGTGAA

Biological target: AMDV VP2 (Aleutian mink disease virus, UniProt A0A168PAM8 200-588)
Test: ELONA
Conditions: protein: recombinant; tags: His

Going from B1 to B2, the Kd rises from 247 ± 62.5 nM to 566 ± 127 nM (2.3-fold).

First: B3
Second: B4
The Kd of the first is 2.2-fold higher: 2090 ± 754 nM for the first, 930 ± 285 nM for the second.
